Changes are numbered by the printed parent chain.
T1: cyno IgE c(epsilon)2-c(epsilon)3-c(epsilon)4 Fc fragment with C-terminal (His)10 tag (cynomolgus monkey)
T1 construct: Made in HEK-EBNA cells with the murine Ig kappa leader; Biotinylated in the Alphascreen; also called cyno IgE Fc; cyno IgE-Fc
T1 chain: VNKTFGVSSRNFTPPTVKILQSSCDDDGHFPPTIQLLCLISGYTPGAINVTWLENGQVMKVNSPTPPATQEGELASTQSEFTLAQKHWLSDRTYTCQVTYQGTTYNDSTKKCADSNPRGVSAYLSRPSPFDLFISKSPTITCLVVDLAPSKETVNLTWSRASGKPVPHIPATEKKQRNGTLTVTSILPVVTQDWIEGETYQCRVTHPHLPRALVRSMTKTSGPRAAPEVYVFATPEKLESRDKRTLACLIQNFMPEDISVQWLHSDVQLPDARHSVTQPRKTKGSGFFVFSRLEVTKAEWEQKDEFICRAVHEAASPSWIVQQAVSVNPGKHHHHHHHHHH

B1: Nanobody 39B2 (VHH)
VHH: EVQLVESGGGLVQPGGSLRLSCAASGFTFGSYDMSWVRQAPGKGPEWVSAINSGGGSTYYADSVKGRFTISRDNAKNTLYLQMNSLKPEDTAVYYCSTDLGPWIEGTMEEYEYEYWGQGTQVTVSS
notes: also called 39B02; not shown: C-terminal c-myc tag and His6 tag
B2: Nanobody 39D11 (VHH)
VHH: EVQLVESGGGLVQPGGSLRLSCAASGFTFGSYDMSWVRQAPGKGPEWVSSIDTGGDITHYADSVKGRFTISRDNANNMLYLQMNSLKPEDTAVYWCATDEDYALGPNEYDYYGQGTQVTVSS
notes: not shown: C-terminal c-myc tag and His6 tag
B3: Nanobody 39D8 (VHH)
VHH: B2 VHH with E89G
notes: also called 39D08; not shown: C-terminal c-myc tag and His6 tag
B4: Nanobody 36G5 (VHH)
VHH: EVQLVESGGGLVQPGGSLRLSCVASGFTFGSYDMSWVRQAPGKRPEWVSAINSGGGSTYYADSVKGRFTISRDNAKNTLYLQMNSLKPEDTAVYYCATDEDYALGPNEYDYYGQGTQVTVSS
notes: as for B2
B5: Nanobody 42G5 (VHH)
VHH: B2 VHH with Q13R, S31N, S63P, N76A, M78T, W95Y
notes: as for B2
B6: Nanobody 42D7 (VHH)
VHH: B2 VHH with S17P
notes: as for B2

Target: T2, human IgE (Diatec, Oslo, Norway) (human, UniProt P01854-1 1-428)
Experiment: cell-based or functional assay

T2 sequence (P01854 other isoform, or with tags, fused parts or gaps): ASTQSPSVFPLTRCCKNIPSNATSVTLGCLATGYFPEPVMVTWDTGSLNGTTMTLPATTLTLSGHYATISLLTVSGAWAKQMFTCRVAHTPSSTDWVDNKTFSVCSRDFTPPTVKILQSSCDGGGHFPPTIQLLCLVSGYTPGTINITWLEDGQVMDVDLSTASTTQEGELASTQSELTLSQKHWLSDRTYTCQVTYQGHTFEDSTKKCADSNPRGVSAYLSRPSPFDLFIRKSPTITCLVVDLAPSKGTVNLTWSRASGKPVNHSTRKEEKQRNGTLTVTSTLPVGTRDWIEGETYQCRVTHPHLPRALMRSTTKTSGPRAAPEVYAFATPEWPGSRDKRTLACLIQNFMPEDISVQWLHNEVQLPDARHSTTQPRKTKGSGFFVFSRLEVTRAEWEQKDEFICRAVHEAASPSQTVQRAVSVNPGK

block of degranulation at 500 nM Nanobody | Binder
25% | B1
> 95% | B2
> 95% | B3
> 95% | B4

Target: T2, human IgE (Diatec, Oslo, Norway)
Experiment: ELISA, competition with coated Fc(epsilon)RI for HuIgE

% inhibition by 500 nM Nanobody | IC50 | Binder
69.3% | 39.4 nM | B1
99.5% | 0.511 nM | B2
98.1% | 8.38 nM | B5
99.4% | 0.55 nM | B3
98.6% | 2.96 nM | B4
99.6% | 0.959 nM | B6

Target: T2, human IgE (Diatec, Oslo, Norway)
Experiment: ELISA, competition with coated Fc(epsilon)RII for HuIgE

fold less potent (against 39D11, 36G5 and Reference Fab) | Binder
10 fold | B1

Target: T1, cyno IgE …
Experiment: Alphascreen, competition with HuFc(epsilon)RI(alpha)Fc for cyno IgE Fc

% inhibition at 250 nM Nanobody | IC50 | Binder
93.5% | 0.119 nM | B2
91.2% | 0.96 nM | B5
93.6% | 0.0742 nM | B3
88.1% | 0.584 nM | B4
92.7% | 0.127 nM | B6

From patent WO2012175740A1 (dated 2012)
